Measurements reported in the supplement of paper PMC9170038.

System: K4 kissing-loop RNA reporter
Experiment: apparent KD of K4 kissing-loop reporter; higher = weaker reporter binding
Conditions: Eterna round: R107
Procedure: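 RNA-MaP round R107: designed RNA switches with theophylline, tryptophan, arginine or FMN aptamers are transcribed on-chip within common flanks. They are titrated with a labelled K4 kissing-loop RNA reporter in RNA-MaP buffer (100 mM Tris pH 7.5, 80 mM KCl, 4 mM MgCl2), without ligand or with the indicated ligand. Median apparent KD per design.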

[1] = input ligand: theophylline 20 uM
[2] = input ligand: tryptophan 2.4 mM
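Also: bound reporter read as fluorescence of individual clusters on recovered sequencing chips by microscopy, with normalized cluster intensities fitted with a binding model.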

Sequence | apparent KD of K4 kissing-loop reporter (input ligand: FMN 200 uM) | apparent KD of K4 kissing-loop reporter (input ligand: arginine 13.2 mM) | apparent KD of K4 kissing-loop reporter (input ligand: none) | apparent KD of K4 kissing-loop reporter [1] | apparent KD of K4 kissing-loop reporter [2]
UGUACCGAGUCAGGAUAUGGCGUCGAAAGACGAAACCAGUGAUGUUGGAAAAUCUGCGAAAGCAGUCCAGAAGGGACUUGGUACU [FmnBS 24 #SwitchBubble #StaticStem #DoubleMagnetSystem] | 193 nM | 236 nM | 302 nM | 227 nM | 226 nM
UGUAUGGACUGAAGGAGCGCUAGGUAUGUGAGUGAUGUUCAUAUAAAUGUAUAAAGGGUUUGGCAGGUAGGUCGCAGUCCAUACU [KL-SSArg B6] | 213 nM | 122 nM | 227 nM | 154 nM | 188 nM
UGUAUGUGAUUUGAUACCAGACCAGCUGGUGGUAUAUGAGUGAUGUUCAUGUUGGUUUGGGUCCCUUGGCAGCAAAUCGCAUACU [KL-SSTheoB10] | 271 nM | 183 nM | 217 nM | 213 nM | 212 nM
UGUAUGUGAUUUGAUACCAGACCAGGUGGAGGAAUCUGAGUGAUGUUCAGGUAGGUUCUGGUCCCUUGGCAGCAAAUCGCAUACU [KL-SSTheoB19] | 166 nM | 133 nM | 168 nM | 150 nM | 160 nM
UGUCAUGGAAACAUGAACGUUGAUGUUCGACGAGGACCGGUACGGCCGCCACUCGAGUAAUAGUCAGUGAUGUUGACUAGUCUAA [KL-SSTryp-A form1] | 76.7 nM | 107 nM | 95 nM | 112 nM | 75.7 nM
UGUCAUUGGUCGGCCGCCACUAGAAGGUCAAAGACCAAAGAGUGAUGUUCUUAGACGAAAGUCACUAGGACCGGGACCGAUGACU [TrypBS 7 #SwitchBubble #K4Middle] | 931 nM | 641 nM | 971 nM | 746 nM | 200 nM
UGUCAUUGGUCGGCCGCCACUAGACGGACAUAAAGUCUGUCAUAAAGAGUGAUGUUCUUAAAUAAUAGGACCGGGACCGAUGACU [TrypBS 29 #SwitchBubble #StaticStem] | 440 nM | 382 nM | 872 nM | 611 nM | 218 nM
UGUCAUUGGUCGGCCGCCACUCCAUAAUGAGUGAUGUUCUAAAAGACGGAUCGAAAGAUCUGUCGGAGGACCGGGACCGAUGACU [FiskerMod 5 - Jieux - Same State - Tryptophan B] | 566 nM | 456 nM | 680 nM | 799 nM | 267 nM
UGUCAUUGGUCUGAUACCAGCUGAUCGGAAACGAUCUUGCUGGAGUGAUGUUCCAAGUAAAGCCCUUGGCAGCAGACCGAUGACU [TheoBS 9 #SwitchBubble #StaticStem] | 183 nM | 53.8 nM | 70.6 nM | 107 nM | 144 nM
UGUCAUUGGUCUGAUACCAGCUGAUCGGAAACGAUCUUGCUGGAGUGAUGUUCCAGGAAAAGCCCUUGGCAGCAGACCGAUGACU [TheoBS 10 #SwitchBubble #StaticStem] | 1320 nM | 445 nM | 1210 nM | 1100 nM | 1220 nM
UGUCAUUGGUCUGAUACCAGUUGAUAAACUGGAGUGAUGUUCCAAGACGAGAAACUCGACAACCCUUGGCAGCAGACCGAUGACU [TheoBS 16 #SwitchBubble 13 #StaticStem] | 440 nM | 295 nM | 374 nM | 772 nM | 430 nM
UGUCGAGUGAUGUUCGAUGUGGUGCAUGCAGAGGAUAUAGGGUGGGCUAGAAGGCUGAAAAGUGCUUCGAGUGAUGUUCGAAGAU [Exclusion FMN A GF9] | 129 nM | 112 nM | 123 nM | 100 nM | 114 nM
UGUCGUUCUAGUGAUGUUAGGACAGUUAUGAAGGAUAUACACACUCGUAGAAGGUCAGCUGCGGAAUGGCGAUUACGGUGAUUCG [theeternabot_sameState_KL_FMN_A_39] | 157 nM | 107 nM | 128 nM | 132 nM | 136 nM
UGUGCUGUGUACUGUAAUGUUAUGCGGGAUACCAGAGUCUUUUUAUUCCCUUGGCAGCUUGAGUGAUGUUUGAUGCUGUUCUUGU [kiokmullin] | 362 nM | 301 nM | 370 nM | 331 nM | 314 nM
UGUGUUGUUUUGAUGUUUGUUGUAAGGUGGCAGGAUAUCGUAGAGGCGAGAAGGGCUUUUUUGCGUUAUGAGUGAUGUUUGUAGG [exeerzmullin] | 592 nM | 379 nM | 614 nM | 471 nM | 386 nM
UGUGUUUACCUGACCCAGUGAUGUUGGGAAGGAGCGUGCGAAAGCACAGGUAGGUCGCUCAACCUAAAGUCAGGUGAGCACUAAA [#SwitchBubble 9 #K4Early] | 407 nM | 277 nM | 447 nM | 470 nM | 328 nM
UGUGUUUACCUGACUCAGUGAUGUUGAGAAGGAGCGUGAGAAAGCACAGGUAGGUCGCUCAACCUAAAUUCAGGUGAGCACUAAA | 241 nM | 274 nM | 238 nM | 302 nM | 204 nM
UGUUAUGGGUGAGGAUAUGCUGACGAUGCGGGUGCGAGUGAUGUUGGUGUGGCUGGUGUCGUUUGUGCAGAAGGCACGCUCGUGG [BDazzled] | 879 nM | 522 nM | 934 nM | 846 nM | 811 nM
UUAACCAACAGCGAUACCAGCGUGGAGUGAUGUUCCGAGGAUCGGAGUGAUGUUCCGAAGCGCCCUUGGCAGCGCAGAAGCGCCA [Exclusion Theophylline B GF9] | 183 nM | 115 nM | 130 nM | 139 nM | 134 nM
UUAGAGAUCUCAGGAUAUCAGUGAUGUUGGUGUGAAGAUCUGAGAUAGAAUUCUAUCUCAGAUCAAUGAGAAGGGAGAUCUCAUU [AK3.1 Exc FMN B] | 385 nM | 162 nM | 209 nM | 181 nM | 168 nM
UUAGAGAUCUCAGGAUAUGAGUGAUGUUGGUAUCAAGAUCUGAGAUAGAAUUCUAUCUCAGAUCAAUCAGAAGGGAGAUCUCAUU [AK2.1 Exc FMN B] | 376 nM | 424 nM | 534 nM | 583 nM | 550 nM
